Laboratory results published in publication PMC13342644 (2026).

Columns and labels:
[1] = target: NB2; test: ELISA
[2] = target: NB1; test: ELISA

B1: Avi-tagged, biotinylated GDP-mannose transporter Vrg4 from Candida albicans (natural protein)
chain: MDSKHSTSSSSSGSLATRISNSGPISIAAYCLSSILMTVTNKYVLSGFSFNLNFFLLAVQSIVCIVTIGSLKSLNIITYRQFNKDEAKKWSPIAFLLVAMIYTSSKALQYLSIPVYTIFKNLTIILIAYGEVIWFGGKVTTMALSSFLLMVLSSVIAYYGDNAAVKSHDDAFALYLGYFWMLTNCFASAAFVLIMRKRIKLTNFKDFDTMYYNNLLSIPILLICSFIFEDWSSANVSLNFPADNRVTTITAMILSGASSVGISYCSAWCVRVTSSTTYSMVGALNKLPIALSGLIFFEAAVNFWSVSSIFVGFGAGLVYAVAKQKQQKEQSQQLPTTK
modifications: biotin (Avi tag biotinylated using BirA ligase)
Kd [1]: 125 nM
Kd [2]: 109 nM
